Source: paper PMC10933773, “Phosphorylation by ATR triggers FANCD2 chromatin loading and activates the Fanconi anemia pathway”

Tests used:
Details in all cases: protein: recombinant;recombinant; tags: FLAG-HA;His; copies: 1;1; label: radiolabelled; fork: 29 bp duplex (S3[1-29] with S4[22-50]), unpaired arms 21 nt (3' of S3) and 21 nt (5' of S4)
FANCD2 WT;FANCI = FANCD2 WT;FANCI (human?;human?, UniProt Q9BXW9;Q9NVI1 1-1451;1-1328, |); test: EMSA; 25 mM Tris-HCl pH 7.5, 100 mM NaCl, 1 mM EDTA, 6% glycerol, 1 mM DTT, 1 nM DNA, room temperature 60-90 min; 4% PAGE 0.4x TBE at 4 C
Sequence of FANCD2 WT;FANCI (Q9BXW9 whole entry, chain 1 of 2): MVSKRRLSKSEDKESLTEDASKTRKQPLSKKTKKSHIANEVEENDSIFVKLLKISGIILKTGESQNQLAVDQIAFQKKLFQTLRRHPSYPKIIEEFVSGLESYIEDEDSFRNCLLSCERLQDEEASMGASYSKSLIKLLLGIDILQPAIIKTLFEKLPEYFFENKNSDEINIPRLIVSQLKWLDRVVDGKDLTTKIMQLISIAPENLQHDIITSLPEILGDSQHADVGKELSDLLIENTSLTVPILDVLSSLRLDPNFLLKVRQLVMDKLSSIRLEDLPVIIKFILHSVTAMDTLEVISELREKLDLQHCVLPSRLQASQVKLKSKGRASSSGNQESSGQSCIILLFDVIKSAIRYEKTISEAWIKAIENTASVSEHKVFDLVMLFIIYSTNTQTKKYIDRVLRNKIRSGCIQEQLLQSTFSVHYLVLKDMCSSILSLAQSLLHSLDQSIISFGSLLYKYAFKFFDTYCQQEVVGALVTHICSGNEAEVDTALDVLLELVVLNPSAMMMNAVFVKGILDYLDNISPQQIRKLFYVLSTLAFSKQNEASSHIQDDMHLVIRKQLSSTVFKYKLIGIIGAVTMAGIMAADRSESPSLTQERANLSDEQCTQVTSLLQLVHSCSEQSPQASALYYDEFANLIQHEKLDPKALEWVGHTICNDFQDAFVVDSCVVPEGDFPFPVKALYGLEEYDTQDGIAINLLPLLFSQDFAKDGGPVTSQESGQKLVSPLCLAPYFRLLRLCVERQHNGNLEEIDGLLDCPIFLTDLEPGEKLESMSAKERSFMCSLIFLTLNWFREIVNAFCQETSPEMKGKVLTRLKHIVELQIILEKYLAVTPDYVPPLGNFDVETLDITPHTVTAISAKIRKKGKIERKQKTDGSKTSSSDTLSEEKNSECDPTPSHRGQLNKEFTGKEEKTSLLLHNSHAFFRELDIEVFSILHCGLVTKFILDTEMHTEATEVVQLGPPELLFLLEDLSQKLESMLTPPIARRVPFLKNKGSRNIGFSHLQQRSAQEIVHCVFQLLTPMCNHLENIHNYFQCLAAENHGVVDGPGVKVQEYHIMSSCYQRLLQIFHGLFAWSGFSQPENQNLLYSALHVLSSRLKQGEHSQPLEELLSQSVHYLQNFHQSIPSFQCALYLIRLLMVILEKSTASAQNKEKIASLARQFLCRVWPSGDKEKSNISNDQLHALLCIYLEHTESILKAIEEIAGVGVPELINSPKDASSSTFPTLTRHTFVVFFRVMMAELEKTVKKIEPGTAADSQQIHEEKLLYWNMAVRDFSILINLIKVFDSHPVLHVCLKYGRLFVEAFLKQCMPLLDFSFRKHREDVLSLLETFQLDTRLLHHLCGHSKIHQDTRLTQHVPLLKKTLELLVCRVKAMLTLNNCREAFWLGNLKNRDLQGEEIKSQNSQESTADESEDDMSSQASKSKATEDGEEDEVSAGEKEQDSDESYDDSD
Sequence of FANCD2 WT;FANCI (Q9NVI1 whole entry, chain 2 of 2): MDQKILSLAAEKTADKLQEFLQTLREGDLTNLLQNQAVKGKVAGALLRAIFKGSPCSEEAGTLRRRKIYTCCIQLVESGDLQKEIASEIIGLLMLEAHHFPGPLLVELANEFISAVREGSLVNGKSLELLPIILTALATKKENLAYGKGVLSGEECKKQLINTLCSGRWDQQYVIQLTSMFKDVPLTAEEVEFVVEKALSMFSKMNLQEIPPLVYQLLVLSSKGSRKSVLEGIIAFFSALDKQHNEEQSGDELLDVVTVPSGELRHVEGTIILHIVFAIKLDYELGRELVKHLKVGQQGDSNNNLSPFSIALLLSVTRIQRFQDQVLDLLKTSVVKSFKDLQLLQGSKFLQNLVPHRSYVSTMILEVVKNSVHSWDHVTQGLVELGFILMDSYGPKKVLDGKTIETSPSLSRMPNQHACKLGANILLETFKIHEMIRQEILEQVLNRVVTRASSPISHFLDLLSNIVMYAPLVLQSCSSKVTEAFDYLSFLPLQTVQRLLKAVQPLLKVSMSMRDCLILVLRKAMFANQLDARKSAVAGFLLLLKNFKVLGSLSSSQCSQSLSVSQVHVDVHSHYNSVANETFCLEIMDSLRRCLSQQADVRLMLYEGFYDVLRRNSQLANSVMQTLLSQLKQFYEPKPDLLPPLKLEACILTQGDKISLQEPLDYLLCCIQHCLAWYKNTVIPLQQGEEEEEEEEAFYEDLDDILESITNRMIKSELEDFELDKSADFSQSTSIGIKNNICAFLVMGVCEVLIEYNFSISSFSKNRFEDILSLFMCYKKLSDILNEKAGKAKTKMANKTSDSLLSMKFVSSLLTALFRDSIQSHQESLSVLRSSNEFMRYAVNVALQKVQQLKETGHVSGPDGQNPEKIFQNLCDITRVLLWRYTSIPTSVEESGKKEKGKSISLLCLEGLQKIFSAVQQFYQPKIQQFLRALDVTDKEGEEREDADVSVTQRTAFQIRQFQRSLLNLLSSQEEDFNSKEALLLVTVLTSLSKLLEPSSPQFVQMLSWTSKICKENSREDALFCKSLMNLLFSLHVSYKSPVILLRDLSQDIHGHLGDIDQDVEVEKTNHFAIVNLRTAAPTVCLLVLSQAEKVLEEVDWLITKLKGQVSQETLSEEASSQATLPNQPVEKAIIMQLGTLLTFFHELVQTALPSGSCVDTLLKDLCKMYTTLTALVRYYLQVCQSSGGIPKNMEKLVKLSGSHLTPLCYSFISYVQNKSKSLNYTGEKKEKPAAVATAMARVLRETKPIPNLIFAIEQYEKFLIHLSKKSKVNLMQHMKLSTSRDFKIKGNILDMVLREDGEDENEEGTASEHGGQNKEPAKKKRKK

FANCD2-10A;FANCI = FANCD2-10A;FANCI (human?;human?, UniProt Q9BXW9;Q9NVI1 1-1451;1-1328, S64A;S178A;S319A;T596A;T608A;S705A;S1257A;S1401A;S1404A;S1418A|); test: as above
Sequence of FANCD2-10A;FANCI (Q9BXW9 whole entry S64A/S178A/S319A/T596A/T608A/S705A/S1257A/S1401A/S1404A/S1418A, chain 1 of 2): as the sequence (Q9BXW9 whole entry, chain 1 of 2) above, with S64A, S178A, S319A, T596A, T608A, S705A, S1257A, S1401A, S1404A, S1418A counted along it
Sequence of FANCD2-10A;FANCI (Q9NVI1 whole entry, chain 2 of 2): as the sequence (Q9NVI1 whole entry, chain 2 of 2) above

FANCD2-10D;FANCI = FANCD2-10D;FANCI (human?;human?, UniProt Q9BXW9;Q9NVI1 1-1451;1-1328, S64D;S178D;S319D;T596D;T608D;S705D;S1257D;S1401D;S1404D;S1418D|); test: EMSA; stronger than WT and 10A; 25 mM Tris-HCl pH 7.5, 100 mM NaCl, 1 mM EDTA, 6% glycerol, 1 mM DTT, 1 nM DNA, room temperature 60-90 min; 4% PAGE 0.4x TBE at 4 C
Sequence of FANCD2-10D;FANCI (Q9BXW9 whole entry S64D/S178D/S319D/T596D/T608D/S705D/S1257D/S1401D/S1404D/S1418D, chain 1 of 2): as the sequence (Q9BXW9 whole entry, chain 1 of 2) above, with S64D, S178D, S319D, T596D, T608D, S705D, S1257D, S1401D, S1404D, S1418D counted along it
Sequence of FANCD2-10D;FANCI (Q9NVI1 whole entry, chain 2 of 2): as the sequence (Q9NVI1 whole entry, chain 2 of 2) above

Measured: binding result

B1: ICL14 Y-shaped DNA (stalled fork mimic) (dsDNA)
DNA 1: CATTGTGAATTCGCCTCTCTGTCTAGCCGAAGCTCGAAACGATCTTGTGC
DNA 2: GTCCATCAAAGTTCGACTGTGCGGCTAGACAGAGAGGCGAATTCACAATG
binds: all assays above
